Patent US11673947B2, “Target tissue-specific antigen-binding molecule” (Chugai Seiyaku Kabushiki Kaisha, priority 2012, dated 2023)

Tested on: CHO/hIL6R (CHO cells expressing human IL-6 receptor)
Test: ADCC (chrome release) with NK92-CD16(V) as effector cells against CHO/hIL6R cells
Format: cell-based
Settings: in the presence of ATP, various antibody concentrations; variants with increased effector activity
Experimental: The obtained antibodies 6RAD2C1-4_030 and 6RAD2C1-4_011 were assessed by the method described below to test whether ADCC activity against hIL-6R-expressing cells is mediated via hIL-6R binding of the antibodies in the presence of adenosine triphosphate (ATP). […] At various antibody concentrations in the presence or absence of ATP, 6RAD2C1-4_030, 6RAD2C1-4_011, and MRA were assessed for the ADCC activity to hIL-6R-expressing cells according to the method described in Reference Example 3.
Antibodies that bind to antigens in an ATP-dependent manner were assessed for their ADCC activity against antigen-expressing cells at various antibody concentrations according to the method described below. […]
ADCC activity was assessed based on the specific chrome release rate determined by chrome release assay. […] 100 μl of culture supernatant from each well of the plate was measured for radioactivity using a gamma counter. The specific chrome release rate was determined based on the equation described in Reference Example 1.

Molecule	ADCC activity against hIL-6R-expressing cells
6RAD2C1-4_030: antibody that binds to hIL-6R in the presence of ATP; variable regions SEQ ID NOs: 119 and 120 (antibody, listed as Homo sapiens, V domains shown) VH: EVQLVESGGDLVKPGGGLRLSCAASGFTFSSYTMNWVRQAPGKGLEWVSSISSRSGYAYYADSVKGRFTISRDNAKNSLYLQMNSLRAEDTAVYYCARFGALNTLNWVFDYWGQGTLVTVSS VL: QSALTQPPSASGSPGQTVTISCTGTSTDVGDYNYVSWYQQHPGKAPKLMIYQVSKKPSGVPDRFSGSKSGNTASLTVSGLQAEDEADYFCSTRTANAGVLFGGGTKLTVL	antibody concentration-dependent ADCC activity
6RAD2C1-4_011: antibody that binds to hIL-6R in the presence of ATP; variable regions SEQ ID NOs: 82 and 83 (antibody, listed as Homo sapiens, V domains shown) VH: EVQLVESGGDLVKPGGGLRLSCAASGFTFSGHTMNWVRQAPGKGLEWVSSISSRSSYIYYADSVKGRFTISRDNAKNSLYLQMNSLRAEDTAVYYCARYGALGQMNWVFDYWGQGTLVTVSS VL: QSALTQPPSASGSPGQTVTISCTGTSTDVGDYNYVSWYQQHPGKAPKLMIYSVSKRPSGVPDRFSGSKSGNTASLTVSGLQAEDEADYFCSSRSSSMNVLFGGGTKLTVL	antibody concentration-dependent ADCC activity
